This note sets out measurements from PMC2713044.

The target of this experiment is Hen egg white lysozyme (HEL) (UniProt P00698). Briefly: isothermal titration calorimetry. The conditions noted are these: pH 8.0, 25.0 °C, no added salt (10 mM buffer only), 10 mM Tris.
Sequence of UniProt P00698 (P00698 whole entry): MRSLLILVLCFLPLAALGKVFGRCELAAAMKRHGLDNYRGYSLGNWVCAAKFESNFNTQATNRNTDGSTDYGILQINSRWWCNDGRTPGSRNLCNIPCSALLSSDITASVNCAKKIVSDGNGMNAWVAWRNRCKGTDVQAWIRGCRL

Consider “HyHEL-10 (HH10) monoclonal antibody, whole IgG1”, for which the ΔH is -20.5 kcal/mol.
